# Measurements reported in the DeepSol protein solubility set.
# Assay: soluble on expression in E. coli; label from the status in PepcDB or PDB records
row,Sequence,soluble on expression in E. coli
1,MLYNKSSFCLWKETIVPIILDSDVLEVAEYVYKTRLSQPYTEVGSEWEYNYKNPTATFAKGDGHNLQRYITIDGKQLHRPIHGLAHTMRTLMYSQLMYCSSKKQPSPHVCQDGRTIADLSELDLKKINIAQLFFVAGRESEASYGDAYHRYHLYGAKQFEEYARKHLTHLFSEEEIRLYSRCIEDRVGDSFDGTPEGYIIHLSHMIDLMRCKSPVEVFLGHSKGVSGIVPTLIHLFGKQDGLDIMHYARGLFAATGEAVPYIDSSEWPHLGVDLSRVQRALSIVGDINVPGQEADSKKTAQAGFSVDGCYSALTSVPTPSWYEKELKEIDDEKIDVKEVDDREIEKEHEIVVPSQATTPLSTVKTDSFVEKLLKPFMIWKKPEVQTTQPTTEKTNKP,not soluble
2,MMAYKSLLTVLTDPKIAPATLAQLVALAEAQDAHAEALCLGVDRSQTGYYYAGANALILQETLNRANAEAEEVLTLAQDTLGKSGVRWSAESGVAQIADLGRHVAHRARFSDLVVLSRPYGEDRGSEAEPIVEAAMFEGHAPVLVVPDNAPPLKQPRTVLLGWNESVEAMRAIRLAMPFLRAADLVRIVVIDPPRHGPDRSDPGGLLSQMLARHGVKVEIDVLSKTMTRVSDILNRHATDTSADMLVMGAYGHSRFREAILGGATRNMLEQATVPVFMAH,not soluble
3,MMFDRETQVVDCRCGGGLGKGGGLAQRGTLSEAGRADVVAVAMSPGQRHITKPVCEITYGMRKENIQVSVLVLYSGSGIPESGMRTGSFVLSPVEVAQIEMHKLAVIHLGNIKDHVIRKTREILSQVDIPAIIVSQIPVDFEDFAEAGIKTRLVMPRDENIRTKGIVMDMVSGVTRGDSCPRDKLNLIVKYVKTTLDQLKDHKGVALEHHHHHH,soluble
4,MMFGRFTQRAQKVLALSQEEAMRLNHSNLGTEHILLGLVREGEGIAAKALYELGISSEKVQQEVEGLIGHGEKAVTTIQYTPRAKKVIELSMDEARKLGHTYVGTEHILLGLIREGEGVAARVLSNLGISLNKARQQVLQLLGGGDATGAGRQTNTQATPTLDSLARDLTVIAREDNLDPVIGRSKEIQRVIEVLSRRTKNNPVLIGEPGVGKTAIAEGLAQQIVRNEVPETLRGKRVMTLDMGTVVAGTKYRGEFEDRLKKVMDEIRQAGNVILFIDELHTLIGAGGAEGAIDASNILKPPLARGELQCIGATTLDEYRKYIEKDAALERRFQPIKVDEPTVEESIQILHGLRDRYEAHHRVAITDEALEAAVRLSDRYISDRFLPDKAIDVIDESGSKVRLKSFTTPKNVKEMENNLSDLKKEKDAAVQGQEFEKAASLRDKEQKLKKSLEETKANWQEKQGLDHSEVTEDIVAEVVASWTGIPVAKLAETETNKLLNMEKLLHERVIGQDAAVKAVSLAVRRARAGLKDPKRPIGSFIFLGPTGVGKTELARALAESMFGDEDSMIRIDMSEYMEKFSTARLVGAPPGYVGYEEGGQLTEKVRQKPYSVVLLDEIEKAHPDVFNMLLQVLDDGRLTDSKGRVVDFRNTVIIMTSNIGAQEMKQDKSMGFNVTDPLKDHKAMEHRVLQDLKQAFRPEFINRIDETIVFHSLQEKELKQIVTLLTAQLTKRLAERDIHVKLTEGAKSKIAKDGYDPEYGARPLKRAIQKEVEDMLSEELLRGNIKVGDYVEIGVKDGKLEVRKKDAPKKKTTSKKVKAK,not soluble
5,MMHEKNIALLCDEADRLLQLNINLLRQMVDEPDVLSDSKNENGLLFDKRKALKRIEELEGEQIKTARREMVLAVVGTMKAGKSTTINAIVGQEILPNRNRPMTSVPTLIRHVPGKTEPVLHLEHIQPVRNLLITLQEKLATPAGQQVAQSLQQTGDTRELLDILADDVWLKNEYHGEDEIFTGLASLNDLVRLAAAMGTEFPFDEYAEVQKLPVIDVAFSHLVGMDACQGTLTLLDTPGPNEAGQPQMEMMMRDQLQKASAVLAVMDYTQMNSKADEEVRKELNAIADVSAGRLFVLVNKFDEKDRNGDGADAVRQKVPAMLNSDVLPASRVYPGSSRQAYLANRALHELRKNGALPVDEAWVDDFIREAFGPMVEEDDWKDSTKVNKKAEKLWNISLIDQLITEVIQSSHSRAAALAVDSAAAKLMQNAENVSEYLSLRHQGLQQSIQSLQAHITSLLADIQEIEECQNQVTGDVRMAMEDINTKTGELLTKVCASLEEELNDYFRSGKRKEQQMLEEENSAQPRERNAFAFFHDIFGTGNQHDRMRDFDPDSPEIKFSDRRAALELMTQIESTVTSLHREAEAQFRPELEKIVSGIETGFRGTALYATENIAGRINARLEDEGFTVKISFPAVSQLQTRLAVKINLSALMEERTETVTRRRRQSGVWGTVCRWFGTSDLGWENYDEDVSRSVININKAREEVMSLTRAYFGELQASIEQDINQPVRQEIDAFFCAFREKVEQLRNTLIQSSEDHKRDQQAQERLTGRLQALNERVPELITDSKALREELETML,not soluble
6,MMHKRDQDYWIFSAELRDAKVKDDQSSKPQIVTPLGISIKRILCTGTVTSKQGDDRMTRITVADPVGNFYVIGFSNGFNPEEKAMLDKVSVDDRIMVIGKISSYRNTEGNYLFSIRPELVSKIDDEAMKFWSLKAYYFAKRRYYAIREAQKSENPAAEILKESGYTMVEAEAAMNAINNFPNYDYQKLFELIEPAMSSIGSSGAIAEARSMILDYIKNNDLDGKGCRYEDIVVAAKNAGIDQSTVDEILNSLGSLGEIFEVSLKRYKFVDTP,not soluble
7,MMKEQNIPQDSLIAGYLPADYCDSFSRNVVSEKAITSDEFFDMAFNHSPGWVNGLMKLRNAIVKPLGLEVGMRFADTICEQNAQEVVFGMPDKHLTFHASLWCGEKEPGGQTFTITTVVKFNNRLGRLYFFFIRPFHKVIIRSMLKRVAKRLK,not soluble
8,MMKIAIIGSGISGLTCGYYLHRYHDITLFEANDYIGGHTATVDVELAGKPYAVDTGFIVYNDRTYPNFIKMMDEIGVQGKPTQMSFSVRNDANGLEYNGHTLTTLFAQKRNWLNPKFYRFIAEILRFNRLTKACVDNQLANEQTLGDFLAQHQFSEYFCENYILPMGAAIWSSSLADMRAFPLMFFARFFLNHGLLDVTNRPQWYVIPGGSRSYIAPLTQGFGDRIRLNSAVTQVKRLPSGVEVVVNGRSERFDEVIFACHSDQALAMLSDASSTEQQLLSALAYQANEVVLHTDTRLLPKRKAAWAAWNYWLKGEANQETRLPSLTYNMNILQHIEAPETFCVTLNSSEDIDPSKILRRFTYHHPVFSRPAIEAQQKKAQISGVNHTWFCGAYWHNGFHEDGVRSALDVVTQLEAYAQRSEQGAALEHHHHHH,soluble
9,MMKRNLIGAFIAASTLLSSSVAFSQDKPAYETGMIPADHIMVPDGDIQASIFLISDANGWTEADETRAKALVEKGAAVVGIDFKEYLKALEADDDECIYMISDIESLSQQIQRTAGTGSYRLPIVTGIGKGGTLALAMIAQSPVSTVREAVAVDPKAGLPLEKILCTPATKDKVDGETVYGLTDGALPAPVSVIFTPDADQKGRDHVNALVKLHSDIEVTDVTDKADEVLTQTLSDKVDAAGDSGNPLGLPITVLEAKPVMDTMAVIYSGDGGWRDLDEEVGSALQKQGVPVIGVDALRYFWKEKDPKEVAGDLARIIDTYRKEWKVKNVVLIGYSFGADIIPATYNLLPDRVKSSVAQLSLLGLSNEVDFEISVQGWLGVAGEGKGGKTVDDIAKIDPKLVQCVYGTEEEDEDPCPGLKAKGVETIGIEGGHHFDEDYEALAKRIVTSLKTRLAKLEHHHHHH,soluble
10,MMNDSFCRIIAGEIQARPEQVDAAVRLLDEGNTVPFIARYRKEITGGLDDTQLRNLETRLSYLRELEERRQAILKSISEQGKLTDDLAKAINATLSKTELEDLYLPYKPKRRTRGQIAIEAGLEPLADLLWSDPSHTPEVAAAQYVYADKGVADTKAALDGARYILMERFAEDAALLAKVRDYLWKNAHLVSTVVSGKEEEGAKFRDYFDHHEPLSTVPSHRALAMFRGRNEGVLQLSLNADPQFDEPPKESYCEQIIMDHLGLRLNNAPADSWRKGVVSWTWRIKVLMHLETELMGTVRERAEDEAINVFARNLHDLLMAAPAGLRATMGLDPGLRTGVKVAVVDATGKLVATDTIYPHTGQAAKAAMTVAALCEKHNVELVAIGNGTASRETERFYLDVQKQFPKVTAQKVIVSEAGASVYSASELAAQEFPDLDVSLRGAVSIARRLQDPLAELVKIDPKSIGVGQYQHDVSQTQLARKLDAVVEDCVNAVGVDLNTASVPLLTRVAGLTRMMAQNIVAWRDENGQFQNRQQLLKVSRLGPKAFEQCAGFLRINHGDNPLDASTVHPEAYPVVERILAATQQALKDLMGNSSELRNLKASDFTDEKFGVPTVTDIIKELEKPGRDPRPEFKTAQFADGVETMNDLQPGMILEGAVTNVTNFGAFVDIGVHQDGLVHISSLSNKFVEDPHTVVKAGDIVKVKVLEVDLQRKRIALTMRLDEQPGETNARRGGGNERPQNNRPAAKPRGREAQPAGNSAMMDALAAAMGKKR,soluble
